Test results: article doi:10.1101/2023.07.29.551094

Molecular target: TslA lipase domain, purified (S. aureus)
Experiment: ITC

B1: TilA (SAOUHSC_00405) lacking its signal sequence, His tag removed (natural protein)
chain: CGNMKDEQKKEEQTNKTDSKEEQIKKSFAKTLDMYPIKNLEDLYDKEGYRDGEFKKGDKGTWTILTGFSKSNKPGVLDDEGMVLYLNRNTKKATGYYFVNKVYDDISKNHNEKKYRVELKNNKIVLLDNVEDKKLKQKIENFKFFSQYADFKDLKNYQDGNITTNENVPSYEAQYKMNNSDKNVKKLREIYPITTNNSPNLKLYIDGDIKGSSVGYKKIEYKFSKDKGQETTLRDYLNFGPSEGENVE
In the case of B1, the Kd is reported as 14.2 nM, the dH is reported as -20.5 kcal/mol and the stoichiometry N is reported as 0.88.
